Assay results from patent publication US7879792 (REGENTS OF THE UNIVERSITY OF MICHIGAN, dated 2011).

B1: rOicPaF(p-Me) (D-Arg-Oic-Pro-D-Ala-Phe(p-Me)) (peptide)
peptide: RXPAF
HELM: PEPTIDE1{[dR].[O=C([C@@H]1C[C@@H]2CCCC[C@@H]2N1[*:1])[*:2]].P.[dA].[Cc1ccc(C[C@H](N[*:1])C(=O)[*:2])cc1].[am]}$$$$V2.0
SMILES: Cc1ccc(C[C@H](NC(=O)[C@@H](C)NC(=O)[C@@H]2CCCN2C(=O)[C@@H]2C[C@@H]3CCCC[C@@H]3N2C(=O)[C@H](N)CCCNC(=N)N)C(N)=O)cc1
notes: also called H-r-Oic-P-a-F(p-Me)-NH2
B2: rOicPsF(p-Me) (D-Arg-Oic-Pro-D-Ser-Phe(p-Me)) (peptide)
peptide: RXPSF
HELM: PEPTIDE1{[dR].[O=C([C@@H]1C[C@@H]2CCCC[C@@H]2N1[*:1])[*:2]].P.[dS].[Cc1ccc(C[C@H](N[*:1])C(=O)[*:2])cc1].[am]}$$$$V2.0; N-terminus assumed
SMILES: Cc1ccc(C[C@H](NC(=O)[C@@H](CO)NC(=O)[C@@H]2CCCN2C(=O)[C@@H]2C[C@@H]3CCCC[C@@H]3N2C(=O)[C@H](N)CCCNC(=N)N)C(N)=O)cc1
B3: rOicPaF(p-I) (D-Arg-Oic-Pro-D-Ala-Phe(p-I)) (peptide)
peptide: RXPAF
HELM: PEPTIDE1{[dR].[O=C([C@@H]1C[C@@H]2CCCC[C@@H]2N1[*:1])[*:2]].P.[dA].[O=C([C@H](Cc1ccc(I)cc1)N[*:1])[*:2]].[am]}$$$$V2.0; N-terminus assumed
SMILES: C[C@@H](NC(=O)[C@@H]1CCCN1C(=O)[C@@H]1C[C@@H]2CCCC[C@@H]2N1C(=O)[C@H](N)CCCNC(=N)N)C(=O)N[C@@H](Cc1ccc(I)cc1)C(N)=O
B4: rOicPaF(p-Br) (D-Arg-Oic-Pro-D-Ala-Phe(p-Br)) (peptide)
peptide: RXPAF
HELM: PEPTIDE1{[dR].[O=C([C@@H]1C[C@@H]2CCCC[C@@H]2N1[*:1])[*:2]].P.[dA].[O=C([C@H](Cc1ccc(Br)cc1)N[*:1])[*:2]].[am]}$$$$V2.0; N-terminus assumed
SMILES: C[C@@H](NC(=O)[C@@H]1CCCN1C(=O)[C@@H]1C[C@@H]2CCCC[C@@H]2N1C(=O)[C@H](N)CCCNC(=N)N)C(=O)N[C@@H](Cc1ccc(Br)cc1)C(N)=O

These binders were tested against T1, human α-thrombin (human, UniProt P00734 328-622) (assay: cell-based or functional assay).

Binder	peptide concentration giving significant prolongation (p<0.05) of the APTT of normal human plasma	peptide concentration giving significant prolongation (p<0.05) of the PT of normal human plasma	peptide concentration giving significant prolongation (p<0.05) of the TCT of normal human plasma
B1	1.56 µM	1.56 µM	0.78 µM
B2	3.13 µM	1.56 µM	0.39 µM
B3	25 µM	6.25 µM	0.78 µM
B4	12.5 µM	6.25 µM	0.78 µM

The binders below were run against T1, human α-thrombin (assay: inhibition of α-thrombin hydrolysis of Sar-Pro-Arg-paranitroanilide; Ki from Ki,app by the procedure of Bieth).

Binder	Ki
B1	6.6 µM
B2	6.7 µM
B3	6.4 µM
B4	7.3 µM
